Data reported in patent publication US20250236667A1, “ANTIBODIES TO MUTANT CALRETICULIN AND USES THEREOF” (CENTRAL ADELAIDE LOCAL HEALTH NETWORK INC, priority 2021, published 2025).

Key:
[1] = biological target: T1, mutant CALR dimers and monomers bound to TpoR in TF-1 TpoR CALR^del61 (Homo sapiens, UniProt P27797); test: TpoR immunoprecipitation under non-reducing conditions; format: cell-based; details: 8 hour treatment with 20 μg/mL
T1 construct: expressed in transfected cells; host or cells: TF-1 TpoR CALR^del61
T1 sequence (P27797 with tags, fused parts or gaps limits assumed): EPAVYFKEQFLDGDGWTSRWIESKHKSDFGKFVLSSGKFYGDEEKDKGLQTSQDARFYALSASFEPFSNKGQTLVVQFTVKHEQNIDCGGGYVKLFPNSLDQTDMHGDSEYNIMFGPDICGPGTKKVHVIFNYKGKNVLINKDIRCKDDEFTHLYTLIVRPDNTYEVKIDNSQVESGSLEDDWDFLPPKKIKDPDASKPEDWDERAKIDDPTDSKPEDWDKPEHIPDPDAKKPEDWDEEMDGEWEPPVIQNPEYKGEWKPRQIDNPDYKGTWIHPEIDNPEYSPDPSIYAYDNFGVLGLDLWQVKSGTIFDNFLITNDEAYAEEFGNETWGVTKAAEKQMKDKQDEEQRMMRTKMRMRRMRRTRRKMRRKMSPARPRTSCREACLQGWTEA
Description: A. Cell extracts blotted for phospho-STAT5, total STAT5, phospho-ERK, total ERK and actin from TF-1 TpoR cells after incubation with 10 or 20 μg/mL 4D7 or IgG for 4 or 8 hours, in presence of TPO. The last line indicates TPO withdrawal. B. Similar experiment using TPO-independent TF-1 TpoR CALR^del61 cells. C. Similar experiment using TPO-independent TF-1 TpoR CALR^del52 cells at 8 hours. D. Fraction of apoptotic sub-Go population of TF-1 TpoR CALR^del61 cells after 48 hours of 4D7 or IgG treatment (n=3). E. Western blot showing caspase 3 cleavage occurring within 24 hours of TPO withdrawal in TPO dependent TF-1 TpoR cells. An increase in cleaved caspase 3 is observed after 48 hours of treatment with 20 μg/mL 4D7 in TF-1 TpoR CALR^del61 and TF-1 TpoR CALR^del52 cells. F. Western blot of TpoR immunoprecipitation under non-reducing conditions showing associated CALR 50 kDa monomers and 100 kDa dimers (arrowheads) present only in TF-1 TpoR CALR^del61 disrupted by 8 hour treatment with 20 μg/mL 4D7 but not PBS or 20 μg/mL IgG. CALR monomers & dimers are detectable by polyclonal anti-wild type CALR or anti-mutant CALR monoclonal antibodies. Arrowheads, detected mutant CALR protein: asterisk, non-specific bands. G. Proposed model for the mechanism of action of 4D7 on mutant CALR. […]

[2] = tested on: ruxolitinib-resistant TF-1 TpoR CALR^del61 cells; test: Colony formation in MethoCult; format: cell-based, human; details: after 72 hours of treatment
Description: A. Graph showing effect of ruxolitinib on megakaryocyte differentiation at 50 and 100 nM in healthy CD34+ cells (n=4). B. Effect of 4D7 on TPO-dependent megakaryocyte differentiation of healthy CD34+ cells cultured with 20 μg/mL 4D7 or IgG control (n=4). C. Total numbers of hematopoietic colonies plated in MethoCult from healthy cord blood after treatment with 4D7 or IgG. CFU-GM, colony forming unit-granulocyte macrophage: BFU-E, blast forming unit-erythroid: CFU-GEMM, colony forming unit granulocyte, erythroid, monocyte, megakaryocyte (n=3).D. CD41+megakaryocyte colonies from healthy CD34+ cells observed on collagen matrix after 4D7 treatment. Colonies were cultured in TPO, SCF. IL-9 and IL-3. E. Number of megakaryocyte colony forming units observed in MegaCult assay after treatment of healthy cord blood CD34+ cells with either IgG or 4D7 (n=3). F. Western blot showing signalling in ruxolitinib-resistant TF-1 TpoR CALR^del61 compared to ruxolitinib sensitive TF-1 TpoR CALR^del61 cells after treatment with 100 nM ruxolitinib for 16 hours or 30 minutes and blotted for phospho-STAT5, total STAT5, phospho-ERK, total ERK and actin as indicated. Ruxolitinib-sensitive cells were non-viable after 16 hours of treatment. […] Cells counted using Trypan Blue exclusion with replicate wells (n=3). […]

B1: 4D7: rat monoclonal IgG2a antibody against the mutant CALR neoepitope; VH SEQ ID NO: 5, VL SEQ ID NO: 7 (antibody, listed as Rattus rattus, V domains shown)
VH: QVQLQQSGAELAKPGSSVKISCKASGYTFTNYDMSWIKQRPGQALEWIGAINPGNGVTDYNEKFRGKATLTVDKSSSTAFMQLSSLTPEDTAVYHCAREYRDNYGYFDYWGQGVMVTVSS
VL: DIVLTQTPVSLSVTLGDQASISCRSSQSLEYSDGYTYLDWFLQKPGQSPQLLIYEVSSRFSGVPDRFIGRGSGTDFTLKISRVEPEDLGVYYCFQATHDPFTFGSGTKLEIK
[1]
  presence of CALR disulfide-linked dimers and CALR monomers bound to TpoR: diminished
[2]
  inhibitory activity on colony formation: strong inhibitory activity
